Experimental data published in paper PMC4267655, “Brr2p carboxy-terminal Sec63 domain modulates Prp16 splicing RNA helicase” (Nucleic Acids Research, 2014).
Positions count from the first letter of the chain named. In names and notes the source's numbering stands.

T1: Prp22p (Saccharomyces cerevisiae, UniProt P24384)
T1 construct: gene PRP22; recombinant from E. coli BL21 RIL, purified as previously described
T1 sequence (P24384 1-1145): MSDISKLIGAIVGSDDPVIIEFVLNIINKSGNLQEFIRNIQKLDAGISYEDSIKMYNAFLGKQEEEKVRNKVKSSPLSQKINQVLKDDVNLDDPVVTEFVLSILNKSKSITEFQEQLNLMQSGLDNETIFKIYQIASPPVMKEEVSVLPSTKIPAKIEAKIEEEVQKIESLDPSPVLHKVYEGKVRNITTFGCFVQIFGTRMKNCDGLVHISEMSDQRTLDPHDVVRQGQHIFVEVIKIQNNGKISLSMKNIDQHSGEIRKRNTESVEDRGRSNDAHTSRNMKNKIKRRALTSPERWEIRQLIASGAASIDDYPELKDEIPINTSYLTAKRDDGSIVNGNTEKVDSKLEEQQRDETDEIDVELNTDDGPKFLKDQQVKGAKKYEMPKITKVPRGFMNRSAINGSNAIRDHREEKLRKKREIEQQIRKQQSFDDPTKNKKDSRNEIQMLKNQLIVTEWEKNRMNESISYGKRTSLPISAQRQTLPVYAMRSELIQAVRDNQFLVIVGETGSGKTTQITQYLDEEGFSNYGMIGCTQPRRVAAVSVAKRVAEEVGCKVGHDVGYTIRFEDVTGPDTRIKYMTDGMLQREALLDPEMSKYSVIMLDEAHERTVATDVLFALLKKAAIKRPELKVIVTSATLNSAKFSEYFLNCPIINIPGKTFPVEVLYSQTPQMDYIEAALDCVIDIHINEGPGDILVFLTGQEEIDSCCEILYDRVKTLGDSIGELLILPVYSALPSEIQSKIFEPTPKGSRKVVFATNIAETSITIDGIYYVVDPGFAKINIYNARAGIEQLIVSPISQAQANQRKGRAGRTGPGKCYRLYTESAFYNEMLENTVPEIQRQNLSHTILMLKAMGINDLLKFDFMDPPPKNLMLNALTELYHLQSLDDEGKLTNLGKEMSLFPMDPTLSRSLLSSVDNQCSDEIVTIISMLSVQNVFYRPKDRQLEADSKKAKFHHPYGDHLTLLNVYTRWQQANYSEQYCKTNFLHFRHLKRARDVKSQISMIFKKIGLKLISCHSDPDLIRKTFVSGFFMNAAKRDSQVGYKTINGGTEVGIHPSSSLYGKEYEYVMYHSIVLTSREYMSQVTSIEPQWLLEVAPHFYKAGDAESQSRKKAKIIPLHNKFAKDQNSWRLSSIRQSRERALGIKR

T2: Prp16p (UniProt P15938 1-1071)
T2 sequence: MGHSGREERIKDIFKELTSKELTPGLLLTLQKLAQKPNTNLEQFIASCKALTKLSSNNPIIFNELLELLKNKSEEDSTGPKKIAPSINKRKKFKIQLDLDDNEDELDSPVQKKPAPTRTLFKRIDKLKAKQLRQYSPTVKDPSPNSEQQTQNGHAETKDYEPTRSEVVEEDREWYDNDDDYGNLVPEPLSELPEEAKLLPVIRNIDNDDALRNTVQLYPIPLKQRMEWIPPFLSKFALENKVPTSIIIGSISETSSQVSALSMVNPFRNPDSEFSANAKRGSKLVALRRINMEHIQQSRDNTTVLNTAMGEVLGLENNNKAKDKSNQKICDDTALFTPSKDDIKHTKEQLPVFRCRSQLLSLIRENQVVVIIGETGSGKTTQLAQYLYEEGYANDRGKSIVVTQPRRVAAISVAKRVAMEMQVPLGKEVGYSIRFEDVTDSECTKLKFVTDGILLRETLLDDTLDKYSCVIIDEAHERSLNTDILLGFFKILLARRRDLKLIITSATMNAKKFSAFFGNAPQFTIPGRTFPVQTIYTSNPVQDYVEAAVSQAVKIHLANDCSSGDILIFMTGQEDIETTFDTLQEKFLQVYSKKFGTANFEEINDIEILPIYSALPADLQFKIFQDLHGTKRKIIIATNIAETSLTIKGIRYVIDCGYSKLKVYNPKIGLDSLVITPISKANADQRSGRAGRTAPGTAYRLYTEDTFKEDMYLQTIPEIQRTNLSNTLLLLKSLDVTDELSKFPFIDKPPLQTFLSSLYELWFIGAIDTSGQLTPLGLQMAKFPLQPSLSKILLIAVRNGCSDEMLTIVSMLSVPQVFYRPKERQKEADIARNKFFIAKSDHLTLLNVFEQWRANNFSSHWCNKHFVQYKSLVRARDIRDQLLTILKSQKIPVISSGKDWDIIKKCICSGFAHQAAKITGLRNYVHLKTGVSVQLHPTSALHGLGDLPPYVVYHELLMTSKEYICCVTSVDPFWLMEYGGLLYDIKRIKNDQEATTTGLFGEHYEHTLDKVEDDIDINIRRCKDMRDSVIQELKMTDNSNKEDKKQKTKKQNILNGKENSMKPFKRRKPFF

T3: recombinant Prp16p (wild type) (budding yeast, UniProt P15938 1-1071)
T3 sequence (looked up): T2 sequence

B1: recombinant Brr2 Sec63-2p (domain or fragment, budding yeast, UniProt P32639 1846-2160, looked up)
chain: TLSNGLIASHYGVSFFTIQSFVSSLSNTSTLKNMLYVLSTAVEFESVPLRKGDRALLVKLSKRLPLRFPEHTSSGSVSFKVFLLLQAYFSRLELPVDFQNDLKDILEKVVPLINVVVDILSANGYLNATTAMDLAQMLIQGVWDVDNPLRQIPHFNNKILEKCKEINVETVYDIMALEDEERDEILTLTDSQLAQVAAFVNNYPNVELTYSLNNSDSLISGVKQKITIQLTRDVEPENLQVTSEKYPFDKLESWWLVLGEVSKKELYAIKKVTLNKETQQYELEFDTPTSGKHNLTIWCVCDSYLDADKELSFEI
notes: Brr2p, budding yeast, carboxy-terminal Sec63-2 domain; detected with anti-His-HRP antibodies; also called WT Sec63-2p; Brr2 Sec63-2p domain; source: E. coli BL21 RIL, purified (Hi-Trap IMAC HP charged with Ni)
B2: recombinant Brr2 Sec63-2 R1899Gp (domain or fragment, budding yeast, UniProt P32639 1846-2160, looked up)
chain: B1 chain with R54G
notes: Brr2p, budding yeast, carboxy-terminal Sec63-2 domain; also called Sec63-2 R1899G mutant protein; Brr2-R1899G mutant protein; source: E. coli BL21 RIL, purified (Hi-Trap IMAC HP charged with Ni)
B3: m21; m1 Prp16p:R456K; Prp16p:G691R; Brr2 H2-Sec63-2:R1899G (protein)
chain: T2 sequence with R456K, G691R
B4: m21; m1 Prp16p:R686I; Brr2 H2-Sec63-2:R1899G (protein)
chain: T2 sequence with R686I
B5: m21; m1 Prp16p:Q685H; Brr2 H2-Sec63-2:R1899G (protein)
chain: T2 sequence with Q685H
B6: m21; m1 Prp16p:R456K; Prp16p:G691R; Brr2 H2-Sec63-2:L1951P (protein)
chain: T2 sequence with R456K, G691R
B7: m21; m1 Prp16p:R686Q; Brr2 H2-Sec63-2:R1899G (protein)
chain: T2 sequence with R686Q
B8: m21; m1 Prp16p:R686I; Brr2 H2-Sec63-2:L1951P (protein)
chain: T2 sequence with R686I
B9: m21; m1 Prp16p:D473E; Brr2 H2-Sec63-2:R1899G (protein)
chain: T2 sequence with D473E
B10: m21; m1 Prp16p:R686Q; Brr2 H2-Sec63-2:L1951P (protein)
chain: T2 sequence with R686Q
B11: m21; m1 Prp16p:Q685H; Brr2 H2-Sec63-2:L1951P (protein)
chain: T2 sequence with Q685H
B12: Prp16p (Saccharomyces cerevisiae S288C) (protein)
chain: T2 sequence
notes: recombinant from E. coli BL21 RIL, NiNTA purified (His-tagged)
B13: m21; m1 Prp16p:D473E; Brr2 H2-Sec63-2:L1951P (protein)
chain: T2 sequence with D473E

Key:
Ded1p = target: T4, Ded1p (Saccharomyces cerevisiae, UniProt P06634); test: ATPase assay, released Pi; assay type: biochemical; settings: 5 nM enzyme, 1 mM ATP, 50 ng/μl total yeast RNA, 20 mM Tris-HCl pH 7.5, 50 mM KAc, 1 mM MgOAc, 30°C
T4 construct: gene DED1; recombinant from E. coli BL21 RIL, purified as previously described
T4 sequence (P06634 2-604): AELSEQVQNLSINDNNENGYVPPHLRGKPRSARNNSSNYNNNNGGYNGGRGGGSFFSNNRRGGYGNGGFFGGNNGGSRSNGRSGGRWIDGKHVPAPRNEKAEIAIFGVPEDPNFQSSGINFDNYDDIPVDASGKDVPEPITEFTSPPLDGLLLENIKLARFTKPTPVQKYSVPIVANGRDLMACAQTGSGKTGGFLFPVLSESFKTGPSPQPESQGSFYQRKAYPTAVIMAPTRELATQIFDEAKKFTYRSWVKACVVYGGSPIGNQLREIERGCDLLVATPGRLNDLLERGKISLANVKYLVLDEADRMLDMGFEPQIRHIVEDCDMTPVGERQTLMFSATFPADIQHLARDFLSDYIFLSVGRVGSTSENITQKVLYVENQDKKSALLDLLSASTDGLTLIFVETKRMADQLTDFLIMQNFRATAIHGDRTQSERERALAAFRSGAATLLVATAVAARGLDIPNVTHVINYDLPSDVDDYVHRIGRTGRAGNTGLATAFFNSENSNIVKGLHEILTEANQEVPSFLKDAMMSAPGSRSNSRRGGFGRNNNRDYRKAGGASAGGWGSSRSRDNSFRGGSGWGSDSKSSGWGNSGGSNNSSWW

Prp22p = target: T1, Prp22p; test: ATPase assay, released Pi; assay type: biochemical; settings: 1 mM ATP, 50 ng/μl total yeast RNA, 20 mM Tris-HCl pH 7.5, 75 mM KCl, 1 mM MgSO4, 30°C
Prp16p = target: T2, Prp16p; test: EMSA; no ATP; 2 nM RNA; EMSA in the Prp16p ATPase assay buffer without ATP (composition, pH and temperature not in the material), 2 nM 5' 32P-labeled RNA; settings: protein: recombinant; tags: His (pET22b-PRP16-His); label: 5' 32P; single stranded
[1] = target: T3, recombinant Prp16p (wild type); test: cell-based or functional assay
[2] = target: T3, recombinant Prp16p (wild type); test: native gel or EMSA; apparent; Prp16p (300 nM) with 2-nM 32P-labelled 44-nt ssRNA and increasing amounts of Sec63-2p or Sec63-2 R1899Gp; loss of the Prp16p-RNA complex; buffer of the Prp16p ATPase assay without ATP; settings: both partners purified
[3] = target: Brr2 H2-Sec63-2p R1899G, Gal4AD-prey fusion, P32639; test: Y2H interaction assay; settings: chain shown with the change; growth on -LWH medium with 3-AT; parent: 50.0
Chain of Brr2 H2-Sec63-2p R1899G, Gal4AD-prey fusion, P32639 (P32639 whole entry R1899G, the tested form may be a part): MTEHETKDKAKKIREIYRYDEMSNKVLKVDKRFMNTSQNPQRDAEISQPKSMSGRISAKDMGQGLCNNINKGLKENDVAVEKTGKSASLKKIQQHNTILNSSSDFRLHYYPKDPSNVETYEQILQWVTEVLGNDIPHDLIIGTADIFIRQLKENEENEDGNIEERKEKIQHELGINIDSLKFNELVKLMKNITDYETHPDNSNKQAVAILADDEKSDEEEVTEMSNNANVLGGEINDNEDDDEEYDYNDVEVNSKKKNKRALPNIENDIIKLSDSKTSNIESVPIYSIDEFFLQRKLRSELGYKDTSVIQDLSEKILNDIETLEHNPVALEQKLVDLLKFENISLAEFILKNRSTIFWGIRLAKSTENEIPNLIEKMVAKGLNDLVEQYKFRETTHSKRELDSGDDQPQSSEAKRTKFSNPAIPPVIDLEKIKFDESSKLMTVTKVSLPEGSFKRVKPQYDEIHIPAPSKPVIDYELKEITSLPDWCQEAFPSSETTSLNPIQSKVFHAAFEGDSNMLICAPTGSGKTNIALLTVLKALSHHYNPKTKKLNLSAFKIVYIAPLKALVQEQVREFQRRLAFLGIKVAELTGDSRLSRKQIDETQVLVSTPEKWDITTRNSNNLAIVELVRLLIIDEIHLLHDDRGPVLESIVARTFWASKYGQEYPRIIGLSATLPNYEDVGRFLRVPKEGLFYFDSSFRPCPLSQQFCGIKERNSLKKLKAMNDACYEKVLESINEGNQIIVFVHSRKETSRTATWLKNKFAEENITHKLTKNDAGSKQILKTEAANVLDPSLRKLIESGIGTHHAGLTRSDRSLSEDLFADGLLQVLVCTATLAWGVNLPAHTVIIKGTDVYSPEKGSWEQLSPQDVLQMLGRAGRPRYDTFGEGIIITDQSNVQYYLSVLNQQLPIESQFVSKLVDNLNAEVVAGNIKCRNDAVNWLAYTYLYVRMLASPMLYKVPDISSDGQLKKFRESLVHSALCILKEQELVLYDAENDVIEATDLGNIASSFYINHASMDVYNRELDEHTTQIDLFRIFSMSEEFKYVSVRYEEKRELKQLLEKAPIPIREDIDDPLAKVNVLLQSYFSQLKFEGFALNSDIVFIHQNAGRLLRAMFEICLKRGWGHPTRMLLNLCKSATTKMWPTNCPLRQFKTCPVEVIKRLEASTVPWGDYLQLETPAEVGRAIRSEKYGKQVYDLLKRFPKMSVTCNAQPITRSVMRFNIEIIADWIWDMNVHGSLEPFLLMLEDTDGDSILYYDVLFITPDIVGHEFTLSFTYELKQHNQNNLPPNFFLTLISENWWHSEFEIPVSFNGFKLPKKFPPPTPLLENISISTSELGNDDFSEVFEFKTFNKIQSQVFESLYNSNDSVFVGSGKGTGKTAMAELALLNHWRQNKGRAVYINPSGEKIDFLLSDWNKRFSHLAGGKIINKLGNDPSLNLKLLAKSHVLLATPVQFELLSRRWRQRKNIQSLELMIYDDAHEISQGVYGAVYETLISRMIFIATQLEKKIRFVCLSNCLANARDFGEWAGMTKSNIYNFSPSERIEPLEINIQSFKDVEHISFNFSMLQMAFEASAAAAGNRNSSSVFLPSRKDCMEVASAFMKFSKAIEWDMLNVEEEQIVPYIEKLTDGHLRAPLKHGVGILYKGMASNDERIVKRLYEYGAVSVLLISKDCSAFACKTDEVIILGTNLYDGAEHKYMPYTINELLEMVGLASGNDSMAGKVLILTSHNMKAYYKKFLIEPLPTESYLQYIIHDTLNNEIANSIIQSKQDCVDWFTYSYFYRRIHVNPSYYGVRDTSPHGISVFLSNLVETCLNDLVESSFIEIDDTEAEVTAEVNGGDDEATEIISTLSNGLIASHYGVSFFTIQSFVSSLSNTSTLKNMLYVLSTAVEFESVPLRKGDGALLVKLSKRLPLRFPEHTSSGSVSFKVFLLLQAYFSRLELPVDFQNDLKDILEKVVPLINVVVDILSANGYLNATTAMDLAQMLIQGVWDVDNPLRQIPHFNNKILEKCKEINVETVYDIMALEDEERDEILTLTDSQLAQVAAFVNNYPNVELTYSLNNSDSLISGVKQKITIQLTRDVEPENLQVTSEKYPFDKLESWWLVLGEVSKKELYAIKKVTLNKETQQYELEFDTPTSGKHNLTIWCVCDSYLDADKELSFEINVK

[4] = target: Brr2 H2-Sec63-2p L1951P, Gal4AD-prey fusion, P32639; test: Y2H interaction assay; settings: chain shown with the change; growth on -LWH medium with 3-AT; parent: 50.0
Chain of Brr2 H2-Sec63-2p L1951P, Gal4AD-prey fusion, P32639 (P32639 whole entry L1951P, the tested form may be a part): as the sequence (P32639 whole entry R1899G, the tested form may be a part) above, with G1899R, L1951P counted along it

[5] = substrate: Nc1ncnc2c1ncn2[C@@H]1O[C@H](COP(=O)(O)OP(=O)(O)OP(=O)(O)O)[C@@H](O)[C@H]1O; test: ATPase assay, released Pi; assay type: biochemical, Saccharomyces cerevisiae; settings: 10 nM enzyme, 50 ng/μl total yeast RNA, no Sec63-2p, 20 mM Tris-HCl pH 7.5, 75 mM KCl, 1 mM MgSO4, 30°C
Excerpt: ATPase assay, released Pi on Prp16p

Row | Molecule | other: maximal [3AT] tolerated [3] | other: maximal [3AT] tolerated [4] | further results
1 | Nc1ncnc2c1ncn2[C@@H]1O[C@H](COP(=O)(O)OP(=O)(O)OP(=O)(O)O)[C@@H](O)[C@H]1O [ATP] | – | – | ATPase assay, released Pi (Ded1p): no effect of Sec63-2p on the ATPase activities of Ded1p; ATPase assay, released Pi (Prp22p): no effect of Sec63-2p on the ATPase activities of Ded1p
2 | GGGCGAAUUCAAAACAAAACAAAACUAGCACCGUAAAGCAAGCU (ssRNA) [44-nt ssRNA] | – | – | binding result (Prp16p): binds
3 | B1 | – | – | ATPase activity of Prp16p (10 nM) in vitro with increasing molar excess of Sec63-2p, in presence of 50-ng/μl total yeast RNA [1]: 2 fold; Kd (dissociation constant) [2]: 0.479 ± 0.002 µM
4 | B2 | – | – | Kd (dissociation constant) [2]: 3.097 ± 0.003 µM
5 | B3 | 0 mM | – | –
6 | B4 | 75 mM | – | –
7 | B5 | 100 mM | – | –
8 | B6 | – | 0 µM | –
9 | B7 | 50 mM | – | –
10 | B8 | – | 200 µM | –
11 | B9 | 10 mM | – | –
12 | B10 | – | 200 µM | –
13 | B11 | – | 0 µM | –
14 | B12 | – | – | Km [5]: 751 ± 181 µM; kcat [5]: 3.05 ± 0.683 s⁻¹
15 | B13 | – | 0 µM | –
